Experimental data published in patent EP3349768A1.

Biological target: T1, Cathepsin G (CTSG) from mouse bone marrow cell lysates (mouse) (UniProt P28293)
T1 sequence (looked up): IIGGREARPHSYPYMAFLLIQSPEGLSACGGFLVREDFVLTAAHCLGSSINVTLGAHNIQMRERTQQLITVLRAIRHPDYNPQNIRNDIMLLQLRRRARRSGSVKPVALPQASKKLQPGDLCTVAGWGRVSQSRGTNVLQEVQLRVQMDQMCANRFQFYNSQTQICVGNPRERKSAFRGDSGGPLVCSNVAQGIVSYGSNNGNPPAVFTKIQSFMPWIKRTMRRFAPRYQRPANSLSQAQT
Experiment: cell-based or functional assay

decrease in CTSG enzymatic activity (cleavage of a specific substrate, release of pNA): 50%
B1: LKAb antibody (anti-Cathepsin G scFv, purified as scFv-Fc fusion protein) (Fc fusion, part only; not given: Fc tag, part only)
scFv, part: MAQVQLVQSGAEVKKPGASVKVSCKASGYTFTSYYMHWVRQAPGQGLEWMGGIIPIFGTGNYAQKFQGRVTITADESTSTAYMELSSLRSEDTAVYYCAREEEQQFSLDYWGQGTLVTVSSGGGGGLSNFMLTQPHSVSESPGKTVTISCTRSSGSIASNSVHWYQQRPGSAPTTVISENNQRPSGVPDRFSGSIDSSSNSASLTISGLKTEDEADYYCQSYDSNFHWVFGGGTQLTVLG
